Assay results published in ChEMBL document CHEMBL1671717, “In vitro potentiation of carbapenems with ME1071, a novel metallo-beta-lactamase inhibitor, against metallo-beta-lactamase- producing Pseudomonas aeruginosa clinical isolates” (Antimicrob Agents Chemother, 2010).

Tests used:
[1] = substrate: C[C@@H](O)[C@H]1C(=O)N2C(C(=O)O)=C(S[C@@H]3CN[C@H](C(=O)N(C)C)C3)[C@H](C)[C@H]12; assay: (§1) Ratio of Kcat to Km for Pseudomonas aeruginosa beta-lactamase IMP-1 by UV spectrophotometric analysis
[2] = substrate: C[C@@H](O)[C@H]1C(=O)N2C(C(=O)O)=C(SCCNC=N)C[C@H]12; assay: as §1
[3] = substrate: C[C@@H](O)[C@H]1C(=O)N2C(C(=O)[O-])=C(SC3Cn4cnc[n+]4C3)[C@H](C)[C@H]12; assay: as §1
[4] = substrate: C[C@@H](O)[C@H]1C(=O)N2C(C(=O)O)=C(SCCNC=N)C[C@H]12; assay: (§2) Activity of Pseudomonas aeruginosa beta-lactamase IMP-1 by UV spectrophotometric analysis
[5] = substrate: C[C@@H](O)[C@H]1C(=O)N2C(C(=O)[O-])=C(SC3Cn4cnc[n+]4C3)[C@H](C)[C@H]12; assay: as §2

B1: Beta-lactamase (Pseudomonas aeruginosa), Q79MP6 (protein)
chain: MSKLSVFFIFLFCSIATAAESLPDLKIEKLDEGVYVHTSFEEVNGWGVVPKHGLVVLVNAEAYLIDTPFTAKDTEKLVTWFVERGYKIKGSISSHFHSDSTGGIEWLNSRSIPTYASELTNELLKKDGKVQATNSFSGVNYWLVKNKIEVFYPGPGHTPDNVVVWLPERKILFGGCFIKPYGLGNLGDANIEAWPKSAKLLKSKYGKAKLVVPSHSEVGDASLLKLTLEQAVKGLNESKKPSKPSN
- kcat/Km [1]: 200000 M⁻¹ s⁻¹
- kcat/Km [2]: 1.8e+06 M⁻¹ s⁻¹
- kcat/Km [3]: 300000 M⁻¹ s⁻¹
- Km [4]: 35.1 µM
- kcat [4]: 63.5 s⁻¹
- Km [5]: 167 µM
- kcat [5]: 44.7 s⁻¹
